According to paper PMC13181761, “New Analogs of the Compstatin Family of Clinical Complement Inhibitors with Low Picomolar Target Affinity” (Journal of Medicinal Chemistry, 2026):
Bridges are numbered along the chain shown (N, C = ends). Where no end group is shown, it is not given here. [ ]: non-standard residue; d: D form. Trp(1-Me) = Cn1cc(C[C@H](N)C(=O)O)c2ccccc21; Nva(3-Et) = CCC(CC)[C@H](N)C(=O)O; Asu = N[C@@H](CCCCCC(=O)O)C(=O)O; NMeI = CC[C@H](C)[C@H](NC)C(=O)O; Sar = CNCC(=O)O

B1: Cp01 Val3Tbg analog (peptide)
chain: ICXWQDWGAHRCT
modifications: α-tert-butyl-glycine (Tbg) at position 3; acetyl at position 0; cyclic (cyclized by H2O2)
B2: Cp01 Val3Nva analog (peptide)
chain: ICXWQDWGAHRCT
modifications: not fully specified; norvaline (Nva) at position 3; acetyl at position 0; cyclic (cyclized by H2O2)
B3: Cp01 W7Bta analog (peptide)
chain: ICVWQDXGAHRCT
modifications: (3-benzothienyl)alanine (Bta) at position 7; acetyl at position 0; cyclic (cyclized by H2O2)

How the values were obtained:
human C3b [1] = target: T1, human C3b (human, UniProt P01024 749-1663); assay: SPR; Biacore T200; human C3b amine-coupled; multicycle kinetics, serial 2-fold dilutions of peptide, 120 s injection, 180 s dissociation, regeneration 1 M NaCl; 25 °C, HBST pH 7.4; Langmuir 1:1 fit, KD = kd/ka; mean of 3 experiments; settings: both partners purified
T1 construct: Complement C3 beta chain, human; cut product of the C3 precursor; C3b alpha chain (C3 alpha chain after release of C3a), human; Two-chain fragment of C3; amine-coupled to the chip in SPR, free in the cryo-EM sample; also called hC3b; plasma-purified C3b; source: bought: Complement Technology (plasma-purified)

human C3b [2] = target: T1, human C3b; assay: SPR; Biacore T200; human C3b amine-coupled; single-cycle kinetics, 5 increasing concentrations (0.5-40 nM), final dissociation 100-240 min; 25 °C, HBST pH 7.4; global Langmuir 1:1 fit; mean of 3 experiments; settings: both partners purified

Row | Binder | Kd (human C3b [1]) | other results
1 | B1 | 103 nM | 
2 | Ac-ICVWQDW[dA]AHRCT (disulfide 2-12 (inferred)) [Cp01 Gly8D-Ala analog] | > 16000 nM | 
3 | B2 | 1660 nM | 
4 | Ac-ICVWQ[Asu]WGAHRCT (disulfide 2-12 (inferred)) [Cp01 Asp6Asu analog] | 2080 nM | koff (human C3b [1]): 0.23 s⁻¹; kon (human C3b [1]): 120000 M⁻¹ s⁻¹
5 | [dY]IC[Nva(3-Et)][Trp(1-Me)]QDW[Sar]AHRC[NMeI] (disulfide 3-13 (inferred)) [Cp40 Dea3 analog] |  | Kd (human C3b [2]): 13.6 nM; koff (human C3b [2]): 0.006 s⁻¹; kon (human C3b [2]): 430000 M⁻¹ s⁻¹
6 | B3 | > 16000 nM | 
